Like-named read-outs stand apart in the source and are kept apart here.
B1: CREB consensus (dsDNA)
DNA 1: AGAGATTGCCTGACGTCAGACAGCTAG
DNA 2: CTAGCTGTCTGACGTCAGGCAATCTCT
B2: Sp-1 consensus (dsDNA)
DNA 1: ATTCGATCGGGCGGGGCGAG
DNA 2: CTCGCCCCGCCCGATCGAAT
B3: GATA-1 consensus (dsDNA)
DNA 1: AATTGGACCGTATCTCCC
DNA 2: GGGAGATACGGTCCAATT
B4: NF-kB consensus WT (dsDNA)
DNA 1: AGTTGAGGGGACTTTCCCAGGC
DNA 2: GCCTGGGAAAGTCCCCTCAACT
B5: AP-1 consensus (dsDNA)
DNA 1: CGCTTGATGAGTCAGCCGGAA
DNA 2: TTCCGGCTGACTCATCAAGCG

What was measured:
Test in all cases: EMSA
[1] = biological target: T1, SLPI (secretory leucoprotease inhibitor) (UniProt P03973 26-132)
T1 sequence (P03973 26-132): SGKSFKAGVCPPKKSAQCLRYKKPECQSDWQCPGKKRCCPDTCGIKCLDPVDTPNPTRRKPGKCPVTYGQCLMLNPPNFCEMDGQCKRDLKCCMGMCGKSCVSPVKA

NF-kB p65 = NF-kB p65 (UniProt Q04206 1-551)
Sequence of NF-kB p65 (Q04206 whole entry): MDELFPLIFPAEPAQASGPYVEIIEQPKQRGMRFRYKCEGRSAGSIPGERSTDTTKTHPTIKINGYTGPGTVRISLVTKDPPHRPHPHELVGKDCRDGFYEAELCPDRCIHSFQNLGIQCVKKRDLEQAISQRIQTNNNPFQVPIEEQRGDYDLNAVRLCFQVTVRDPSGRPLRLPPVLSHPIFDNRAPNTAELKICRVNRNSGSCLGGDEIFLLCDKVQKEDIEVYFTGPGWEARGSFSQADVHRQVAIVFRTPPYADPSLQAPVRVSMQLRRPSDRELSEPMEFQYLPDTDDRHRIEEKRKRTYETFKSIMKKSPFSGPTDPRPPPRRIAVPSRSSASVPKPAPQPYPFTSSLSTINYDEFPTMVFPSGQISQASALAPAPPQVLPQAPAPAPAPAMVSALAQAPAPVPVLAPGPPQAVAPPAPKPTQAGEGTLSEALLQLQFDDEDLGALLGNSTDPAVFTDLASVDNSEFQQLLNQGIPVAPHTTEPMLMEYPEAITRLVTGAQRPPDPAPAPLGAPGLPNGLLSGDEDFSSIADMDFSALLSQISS

[2] = biological target: T1, SLPI (secretory leucoprotease inhibitor); remark: listed apart in the source

Binder	binding result [1]	binding result (NF-kB p65)	binding result [2]
B1	no binding	–	–
B2	no binding	–	–
B3	no binding	–	–
B4	–	binds	binds
B5	binds	–	–
